Publication PMC9482650, “Quantitative fragmentomics allow affinity mapping of interactomes” (Nature Communications, 2022)

T1: MPDZ_6, O75970
T1 sequence (O75970 1003-1099, limits assumed, looked up): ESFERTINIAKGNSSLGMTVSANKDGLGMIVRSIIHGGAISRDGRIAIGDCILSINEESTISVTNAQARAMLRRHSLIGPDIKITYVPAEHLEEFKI

T2: TJP3_2, O95049
T2 sequence (O95049 190-282, limits assumed, looked up): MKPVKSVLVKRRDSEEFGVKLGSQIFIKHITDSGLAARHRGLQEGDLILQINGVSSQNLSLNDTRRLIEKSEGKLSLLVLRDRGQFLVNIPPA

T3: SHROOM4, Q9ULL8
T3 sequence (Q9ULL8 5-102, limits assumed, looked up): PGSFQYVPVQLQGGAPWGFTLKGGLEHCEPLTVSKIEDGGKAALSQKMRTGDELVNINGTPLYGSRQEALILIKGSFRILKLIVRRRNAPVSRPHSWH

T4: PDZD7_2, Q9H5P4
T4 sequence (Q9H5P4 205-303, limits assumed, looked up): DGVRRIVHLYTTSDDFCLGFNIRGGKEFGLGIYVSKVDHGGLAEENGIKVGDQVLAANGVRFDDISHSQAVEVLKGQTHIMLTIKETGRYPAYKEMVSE

T5: USH1C_1, Q9Y6N9
T5 sequence (Q9Y6N9 82-179, limits assumed, looked up): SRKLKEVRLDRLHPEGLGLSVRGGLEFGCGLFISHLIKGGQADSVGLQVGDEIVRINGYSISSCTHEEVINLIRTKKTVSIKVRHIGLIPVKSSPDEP

T6: PREX2_2, Q70Z35
T6 sequence (Q70Z35 672-764, limits assumed, looked up): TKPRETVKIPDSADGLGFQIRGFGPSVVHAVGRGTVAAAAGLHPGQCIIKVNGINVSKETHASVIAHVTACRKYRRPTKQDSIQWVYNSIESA

T7: MPP1, Q00013
T7 sequence (Q00013 66-162, limits assumed, looked up): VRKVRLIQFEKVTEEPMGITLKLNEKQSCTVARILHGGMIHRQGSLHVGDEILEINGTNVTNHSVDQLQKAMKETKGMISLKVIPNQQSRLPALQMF

T8: PDZD7_1, Q9H5P4
T8 sequence (Q9H5P4 81-178, limits assumed, looked up): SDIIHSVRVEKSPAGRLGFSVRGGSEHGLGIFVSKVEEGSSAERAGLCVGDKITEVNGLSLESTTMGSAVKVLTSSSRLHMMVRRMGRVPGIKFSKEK

T9: PDZD11, Q5EBL8
T9 sequence (Q5EBL8 42-139, limits assumed, looked up): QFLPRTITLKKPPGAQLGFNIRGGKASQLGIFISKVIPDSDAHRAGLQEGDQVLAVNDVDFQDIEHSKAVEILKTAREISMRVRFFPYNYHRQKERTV

T10: MPP5, Q8N3R9
T10 sequence (Q8N3R9 251-346, limits assumed, looked up): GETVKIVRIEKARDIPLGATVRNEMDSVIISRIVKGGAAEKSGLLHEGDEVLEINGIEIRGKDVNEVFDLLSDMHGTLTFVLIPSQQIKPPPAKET

T11: PTPN13_4, Q12923
T11 sequence (Q12923 1783-1878, limits assumed, looked up): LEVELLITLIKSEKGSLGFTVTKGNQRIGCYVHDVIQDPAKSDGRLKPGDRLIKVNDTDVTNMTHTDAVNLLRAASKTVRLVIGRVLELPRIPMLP

T12: SIPA1L3, O60292
T12 sequence (O60292 961-1052, limits assumed, looked up): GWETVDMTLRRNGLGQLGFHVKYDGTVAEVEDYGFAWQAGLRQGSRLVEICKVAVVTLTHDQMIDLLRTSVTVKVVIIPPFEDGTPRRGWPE

T13: USH1C_2, Q9Y6N9
T13 sequence (Q9Y6N9 206-303, limits assumed, looked up): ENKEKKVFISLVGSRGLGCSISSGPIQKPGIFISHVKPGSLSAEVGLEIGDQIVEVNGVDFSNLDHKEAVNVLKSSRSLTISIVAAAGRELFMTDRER


What was measured:
Test in all cases: holdup assay
Parameters in all cases: key: below the threshold = too weak to quantify, mostly under pKd 3.1 to 4
Details in all cases: plain residues with an end cap or a label only (N-terminal biotin on a linker: ttds)
MPDZ_6, O75970 = molecular target: T1, MPDZ_6, O75970
MAGI3_6, Q5TCQ9 = molecular target: MAGI3_6, Q5TCQ9
PARD3B_3, Q8TEW8 = molecular target: PARD3B_3, Q8TEW8
TJP3_2, O95049 = molecular target: T2, TJP3_2, O95049
SHROOM4, Q9ULL8 = molecular target: T3, SHROOM4, Q9ULL8
PTPN13_2, Q12923 = molecular target: PTPN13_2, Q12923
PDZD7_2, Q9H5P4 = molecular target: T4, PDZD7_2, Q9H5P4
MAGI1_6, Q96QZ7 = molecular target: MAGI1_6, Q96QZ7
USH1C_1, Q9Y6N9 = molecular target: T5, USH1C_1, Q9Y6N9
PARD3_1, Q8TEW0 = molecular target: PARD3_1, Q8TEW0
PREX2_2, Q70Z35 = molecular target: T6, PREX2_2, Q70Z35
MPP1, Q00013 = molecular target: T7, MPP1, Q00013
PDZD7_1, Q9H5P4 = molecular target: T8, PDZD7_1, Q9H5P4
PDLIM4, P50479 = molecular target: PDLIM4, P50479
DVL2, O14641 = molecular target: DVL2, O14641
PDZD11, Q5EBL8 = molecular target: T9, PDZD11, Q5EBL8
PDZRN4_2, Q6ZMN7 = molecular target: PDZRN4_2, Q6ZMN7
SDCBP_1, O00560 = molecular target: SDCBP_1, O00560
AHNAK2, Q8IVF2 = molecular target: AHNAK2, Q8IVF2
MAGI1_3, Q96QZ7 = molecular target: MAGI1_3, Q96QZ7
MAGI3_4, Q5TCQ9 = molecular target: MAGI3_4, Q5TCQ9
MPP5, Q8N3R9 = molecular target: T10, MPP5, Q8N3R9
PTPN13_4, Q12923 = molecular target: T11, PTPN13_4, Q12923
SIPA1L3, O60292 = molecular target: T12, SIPA1L3, O60292
USH1C_2, Q9Y6N9 = molecular target: T13, USH1C_2, Q9Y6N9

Chain of DVL2, O14641 (O14641 260-359): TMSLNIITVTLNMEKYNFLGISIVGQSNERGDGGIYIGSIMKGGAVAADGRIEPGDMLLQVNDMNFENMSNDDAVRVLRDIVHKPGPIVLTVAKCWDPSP
Chain of MAGI3_6, Q5TCQ9 (Q5TCQ9 1014-1103): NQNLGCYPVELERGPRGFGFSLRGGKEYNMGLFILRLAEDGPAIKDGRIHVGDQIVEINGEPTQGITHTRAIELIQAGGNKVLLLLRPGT
Chain of MAGI1_6, Q96QZ7 (Q96QZ7 1146-1238): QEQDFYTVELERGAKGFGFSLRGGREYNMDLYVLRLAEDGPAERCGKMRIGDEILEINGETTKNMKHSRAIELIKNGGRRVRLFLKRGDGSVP
Chain of PARD3B_3, Q8TEW8 (Q8TEW8 490-594): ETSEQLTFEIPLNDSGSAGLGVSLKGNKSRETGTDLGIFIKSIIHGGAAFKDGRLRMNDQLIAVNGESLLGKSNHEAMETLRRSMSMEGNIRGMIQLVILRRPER
Chain of PARD3_1, Q8TEW0 (Q8TEW0 264-372): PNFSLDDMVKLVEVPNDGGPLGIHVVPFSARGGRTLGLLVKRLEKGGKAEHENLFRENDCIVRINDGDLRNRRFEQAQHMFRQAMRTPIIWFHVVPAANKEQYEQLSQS
Chain of AHNAK2, Q8IVF2 (Q8IVF2 108-193): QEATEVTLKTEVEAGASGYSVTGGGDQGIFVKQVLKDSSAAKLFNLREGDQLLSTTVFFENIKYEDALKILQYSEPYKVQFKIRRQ
Chain of PDLIM4, P50479 (P50479 1-83): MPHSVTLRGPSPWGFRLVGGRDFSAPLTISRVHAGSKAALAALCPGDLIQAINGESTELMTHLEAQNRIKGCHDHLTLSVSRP
Chain of SDCBP_1, O00560 (O00560 111-198): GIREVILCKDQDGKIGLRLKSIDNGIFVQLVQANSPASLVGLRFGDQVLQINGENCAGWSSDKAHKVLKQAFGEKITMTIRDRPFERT
Chain of PDZRN4_2, Q6ZMN7 (Q6ZMN7 389-498): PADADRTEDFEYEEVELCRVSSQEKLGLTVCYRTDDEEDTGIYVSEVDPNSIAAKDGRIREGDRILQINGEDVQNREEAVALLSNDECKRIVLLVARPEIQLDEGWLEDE
Chain of MAGI1_3, Q96QZ7 (Q96QZ7 638-725): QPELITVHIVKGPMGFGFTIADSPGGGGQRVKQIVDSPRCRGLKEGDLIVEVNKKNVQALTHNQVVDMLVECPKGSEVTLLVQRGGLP
Chain of PTPN13_2, Q12923 (Q12923 1363-1462): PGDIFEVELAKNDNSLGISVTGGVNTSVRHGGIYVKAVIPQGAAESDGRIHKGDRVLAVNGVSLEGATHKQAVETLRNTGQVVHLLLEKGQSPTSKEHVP
Chain of MAGI3_4, Q5TCQ9 (Q5TCQ9 716-815): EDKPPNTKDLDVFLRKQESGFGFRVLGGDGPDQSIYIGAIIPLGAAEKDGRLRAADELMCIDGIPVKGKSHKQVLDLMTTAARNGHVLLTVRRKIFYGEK

Row | Binder | pKd (MPDZ_6, O75970) | pKd (MAGI3_6, Q5TCQ9) | pKd (PARD3B_3, Q8TEW8) | pKd (TJP3_2, O95049) | pKd (SHROOM4, Q9ULL8) | pKd (PTPN13_2, Q12923) | pKd (PDZD7_2, Q9H5P4) | pKd (MAGI1_6, Q96QZ7) | pKd (PARD3_1, Q8TEW0) | pKd (MPP1, Q00013) | pKd (PDZD7_1, Q9H5P4) | pKd (PDLIM4, P50479) | pKd (DVL2, O14641) | pKd (PDZD11, Q5EBL8) | pKd (PDZRN4_2, Q6ZMN7) | pKd (SDCBP_1, O00560) | pKd (AHNAK2, Q8IVF2) | pKd (MAGI1_3, Q96QZ7) | pKd (MAGI3_4, Q5TCQ9) | pKd (MPP5, Q8N3R9) | also measured
1 | TGDTLEKFVEGL [CBP, Q92793] | below the threshold | below the threshold | below the threshold | 3.95 | 3.86 | below the threshold | below the threshold | below the threshold | below the threshold | below the threshold | below the threshold | below the threshold | below the threshold | below the threshold | below the threshold | below the threshold | below the threshold | below the threshold | below the threshold | below the threshold | pKd (USH1C_1, Q9Y6N9): below the threshold; pKd (PREX2_2, Q70Z35): below the threshold
2 | QPGTPTRTAV [MAP2K2, P36507] | below the threshold | below the threshold | below the threshold | below the threshold | below the threshold | below the threshold | below the threshold | below the threshold | below the threshold | 4.12 | below the threshold | below the threshold | 4.8 | below the threshold | below the threshold | below the threshold | below the threshold | below the threshold | below the threshold | below the threshold | pKd (PTPN13_4, Q12923): below the threshold; pKd (SIPA1L3, O60292): below the threshold; pKd (USH1C_1, Q9Y6N9): below the threshold; pKd (PREX2_2, Q70Z35): below the threshold; pKd (USH1C_2, Q9Y6N9): below the threshold
3 | DEDQHTQITKV [PTEN, P60484] | below the threshold | below the threshold | below the threshold | below the threshold | below the threshold | 3.81 | below the threshold | below the threshold | below the threshold | below the threshold | below the threshold | below the threshold | below the threshold | below the threshold | below the threshold | below the threshold | below the threshold | 4.5 | below the threshold | below the threshold | pKd (USH1C_1, Q9Y6N9): below the threshold; pKd (PREX2_2, Q70Z35): below the threshold
4 | CLDTSRETDL [KCNA5, P22460] | below the threshold | 4.34 | below the threshold | below the threshold | below the threshold | below the threshold | below the threshold | 4.55 | below the threshold | below the threshold | below the threshold | 4.26 | below the threshold | below the threshold | below the threshold | below the threshold | below the threshold | below the threshold | below the threshold | below the threshold | pKd (PTPN13_4, Q12923): below the threshold; pKd (SIPA1L3, O60292): below the threshold; pKd (USH1C_1, Q9Y6N9): below the threshold; pKd (PREX2_2, Q70Z35): below the threshold; pKd (USH1C_2, Q9Y6N9): below the threshold
5 | RRVRKLPSTTL [RPS6KA1, Q15418] | below the threshold | below the threshold | below the threshold | below the threshold | below the threshold | below the threshold | below the threshold | below the threshold | below the threshold | below the threshold | below the threshold | below the threshold | below the threshold | below the threshold | below the threshold | below the threshold | below the threshold | below the threshold | 3.59 | below the threshold | pKd (PTPN13_4, Q12923): below the threshold; pKd (SIPA1L3, O60292): below the threshold; pKd (USH1C_2, Q9Y6N9): below the threshold
